{"source": "patent US9458465B2", "about": "“Compositions and methods to modulate cell membrane resealing” (RUTGERS, THE STATE UNIVERSITY OF NEW JERSEY, priority 2007, dated 2016)", "molecules": {"B1": {"name": "WT: wild type MG53 as GFP fusion protein expressed in cells (protein)", "chain": "MSAAPGLLRQELSCPLCLQLFDAPVTAECGHSFCRACLIRVAGEPAADGTVACPCCQAPTRPQALSTNLQLSRLVEGLAQVPQGHCEEHLDPLSIYCEQDRTLVCGVCASLGSHRGHRLLPAAEAQARLKTQLPQQKMQLQEACMRKEKTVAVLEHQLVEVEETVRQFRGAVGEQLGKMRMFLAALESSLDREAERVRGDAGVALRRELSSLNSYLEQLRQMEKVLEEVADKPQTEFLMKFCLVTSRLQKILSESPPPARLDIQLPVISDDFKFQVWKKMFRALMPALEELTFDPSSAHPSLVVSSSGRRVECSDQKAPPAGEDTRQFDKAVAVVAQQLLSQGEHYWEVEVGDKPRWALGVMAADASRRGRLHAVPSQGLWLLGLRDGKILEAHVEAKEPRALRTPERPPARIGLYLSFADGVLAFYDASNPDVLTPIFSFHERLPGPVYPIFDVCWHDKGKNAQPLLLVGPEQEQA", "modifications": "left off: large carriers", "notes": "wild type MG53 as GFP fusion protein expressed in cells"}}, "key": {"[1]": {"test_system": "C2C12 cells expressing GFP-MG53", "assay": "Repair of acute membrane damage: translocation to microelectrode injury site", "type": "cell-based, murine", "conditions": "C2C12 cells; acute membrane damage", "method": "To follow the process of intracellular vesicle translocation associated with repair of acute membrane damage, GFP-MG53 fusion protein was expressed in C2C12 myoblast cells (FIG. 21a). […]\nCell culture—The C2C12 murine myoblast cell line used for all studies was purchased from the American Type Culture Collection (Manassas, Va.). Cells were grown in a humidified environment at 37° C. and 5% CO2 in DMEM medium for C2C12 or Ham's F12 medium for CHO cells supplemented with 10% fetal bovine serum, 100 units/ml penicillin and 100 ug/ml streptomycin. In order to induce myotube differentiation, C2C12 myoblasts were grown to confluence and the medium was switched to DMEM containing 2% horse serum, penicillin (100 U/ml), streptomycin (100 μg/ml). For transient transfections, C2C12 myoblasts or CHO cells were plated at 70% confluence in glass-bottom dishes. After 24 hours, cells were transfected with plasmids described above using GeneJammer reagent (Stratagene). Cells were visualized by live cell confocal imaging at 24-48 hours after transfection or at times indicated for individual experiments. In some experiments, C2C12 myoblasts were allowed to differentiate into myotubes for the indicated time before observation.\nLive cell imaging—To monitor intracellular trafficking of GFP-MG53 either CHO or C2C12 cells were cultured in glass-bottom dishes (Bioptechs Inc.) and transfected with the plasmids described above. Fluorescence images (512×512) were captured at 3.18 s/frame using a BioRad 2100 Radiance laser scanning confocal microscope with a 63×1.3NA oil immersion objective."}, "[2]": {"test_system": "mg53−/− myotubes", "assay": "Membrane repair in transfected mg53−/− myotubes", "type": "cell-based, mice", "description": "The entry of FM4-64, a red-shifted variant of FM1-43, was used as an index of membrane repair capacity in mg53−/− myotubes transfected with GFP-MG53 and GFP-C242A. Following UV-bleaching of the green fluorescence, rapid translocation of GFP-MG53 took place at the injury site, whereas GFP-C242A remained static due to its defective oligomerization properties (FIG. 16E, 17A).\nSimilar defects with GFP-C29L were also observed in C2C12 myotubes (FIG. 18e, middle)."}, "[3]": {"test_system": "Human gastric adenocarcinoma (AGS) cells", "assay": "GFP-MG53 translocation after microelectrode or saponin damage, AGS", "type": "cell-based", "conditions": "microelectrode or 0.005% saponin", "description": "MG53 can translocate to membrane repair sites in gastric cells. Human gastric adenocarcinoma (AGS) cells were transfected with GFP-MG53 and then subjected to mechanical membrane damage by microelectrode needle penetration (top) or treatment with 0.005% saponin to permeabilize the membrane (bottom) (FIG. 45). Translocation of GFP-MG53 to the injury site (arrow) was monitored by live cell confocal microscopy."}, "[4]": {"test_system": "Mouse primary astrocytes", "assay": "GFP-MG53 translocation after microelectrode or saponin damage, astrocytes", "type": "cell-based", "conditions": "microelectrode or 0.005% saponin", "description": "MG53 can translocate to membrane repair sites in neural cells. Mouse primary astrocytes were transfected with GFP-MG53 and then subjected to mechanical membrane damage by microelectrode needle penetration (top) or treatment with 0.005% saponin to permeabilize the membrane (bottom) (FIG. 46). Translocation of GFP-MG53 to the injury site (arrow) was monitored by live cell confocal microscopy."}, "[5]": {"test_system": "Human C38 airway epithelial cells", "assay": "GFP-MG53 translocation after microelectrode or saponin damage, C38", "type": "cell-based", "conditions": "microelectrode or 0.005% saponin", "description": "MG53 can translocate to membrane repair sites in airway epithelial cells. Human C38 airway epithelial cells were transfected with GFP-MG53 and then subjected to mechanical membrane damage by microelectrode needle penetration (top) or treatment with 0.005% saponin to permeabilize the membrane (bottom) (FIG. 47). Translocation of GFP-MG53 to the injury site (arrow) was monitored by live cell confocal microscopy."}, "[6]": {"test_system": "Mouse leukaemic monocyte macrophage (RAW 264.7) cells", "assay": "GFP-MG53 translocation after microelectrode or saponin damage, RAW 264.7", "type": "cell-based", "conditions": "microelectrode or 0.005% saponin", "description": "MG53 can translocate to membrane repair sites in immune cells. Mouse leukaemic monocyte macrophage (RAW 264.7) cells were transfected with GFP-MG53 and then subjected to mechanical membrane damage by microelectrode needle penetration (top) or treatment with 0.005% saponin to permeabilize the membrane (bottom) (FIG. 49). Translocation of GFP-MG53 to the injury site (arrow) was monitored by live cell confocal microscopy."}, "[7]": {"test_system": "human embryonic palatal mesenchymal (HEPM) dental cells", "assay": "GFP-MG53 translocation after microelectrode or saponin damage, HEPM", "type": "cell-based", "conditions": "microelectrode or saponin detergent", "description": "(§1) MG53 can patch the plasma membrane in many different human cell types and prevent cell death. To test if exogenous MG53 can recapitulate membrane resealing function in non-muscle cell types, we used either adenovirus or liposome-based transfection methods to express GFP-MG53 in a number of different cell types. In all cell types tested, MG53 performed in a similar fashion as that seen in muscle cells. Here we illustrate these effects in immortalized human cell lines, including HEK293 (not shown) and human embryonic palatal mesenchymal (HEPM) dental cells (FIG. 43), as well as primary cultures of human keratinocytes (FIG. 42). […] The function of MG53 appears to be essential to allow membrane patching and survival of muscle cells following injury."}, "[8]": {"test_system": "primary cultures of human keratinocytes", "assay": "GFP-MG53 translocation after microelectrode or saponin damage, keratinocytes", "type": "cell-based", "conditions": "microelectrode or saponin detergent", "description": "as §1"}}}
{"molecule": "B1", "values": [{"measurement": "translocation to injury site and membrane repair function of GFP fusion protein", "setting": "[1]", "result": "rapid accumulation"}, {"measurement": "translocation to the plasma membrane following injury", "setting": "[2]; primary cultured mg53−/− myotubes", "result": "could translocate to the plasma membrane following injury"}, {"measurement": "entry of FM4-64 (membrane repair capacity)", "setting": "[2]; transfected mg53−/− myotubes, UV injury", "result": "Significantly less entry of FM4-64"}, {"measurement": "translocation after cell membrane damage", "setting": "[3]", "result": "translocation of MG53 to the plasma membrane"}, {"measurement": "translocation after cell membrane damage", "setting": "[4]", "result": "translocation of MG53 to the plasma membrane"}, {"measurement": "translocation after cell membrane damage", "setting": "[5]", "result": "translocation of MG53 to the plasma membrane"}, {"measurement": "translocation after cell membrane damage", "setting": "[6]", "result": "translocation of MG53 to the plasma membrane"}, {"measurement": "translocation after membrane damage", "setting": "[7]", "result": "effectively translocates to the plasma membrane"}, {"measurement": "translocation after membrane damage", "setting": "[8]", "result": "effectively translocates to the plasma membrane"}]}
